Assay results as given in US20250388684A1 (SICHUAN SWIFTBIO BIOTECHNOLOGY, published 2025).
Like-named read-outs stand apart in the source and are kept apart here.

T1: human CCR4 (human, UniProt P51679 1-360)
T1 construct: whole, on cells; also called h.CCR4; HEK293T-h.CCR4
T1 sequence (looked up): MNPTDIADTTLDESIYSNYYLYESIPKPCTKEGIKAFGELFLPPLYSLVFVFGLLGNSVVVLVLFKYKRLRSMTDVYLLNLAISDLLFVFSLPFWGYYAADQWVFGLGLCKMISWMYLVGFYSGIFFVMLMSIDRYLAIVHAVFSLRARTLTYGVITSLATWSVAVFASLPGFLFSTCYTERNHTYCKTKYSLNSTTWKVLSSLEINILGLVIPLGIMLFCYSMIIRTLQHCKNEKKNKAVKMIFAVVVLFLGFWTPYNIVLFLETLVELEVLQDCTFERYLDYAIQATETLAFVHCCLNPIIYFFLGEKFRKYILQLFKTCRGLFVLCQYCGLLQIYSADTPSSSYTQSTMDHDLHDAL


Assays:
human CCR4 [1] = biological target: T1, human CCR4; assay: FACS on HEK293T-h.CCR4 cells
Procedure: Evaluate the specificity of anti-human CCR8 mouse monoclonal antibodies using FACS. The experimental steps are as follows: digest HEK293T-h.CCR4 cells, centrifuge to collect the cells, and wash three times with pre-cooled PBS. Resuspend the cells in 1% BSA (in PBS), adding 3×10\hat{ }5 cells in a volume of 50 μL to each well of a 96-well V-bottom plate. Dilute the antibody to be tested in 1% BSA (in PBS) to 20 μg/mL, take 50 μL per well, and add it to the cells, resulting in a final antibody concentration of 10 μg/mL. Mix and incubate at 4° C. for 1 hour. Centrifuge to collect the cells and wash three times with pre-cooled PBS. Resuspend the cells in 50 μL of 1% BSA (in PBS), add 1 μL of fluorescent secondary antibody to each well, mix, and incubate at 4° C. for 0.5 hours. Centrifuge to collect the cells, wash three times with pre-cooled PBS, resuspend the cells in 200 μL of PBS, and analyze them.

[2] = biological target: T2, human CCR8 (C-C chemokine receptor type 8) (human, UniProt P51685 1-355); assay: FACS on HEK293T-h.CCR8 cells, mouse antibody
T2 construct: whole, on cells; also called h.CCR8; HEK293T-h.CCR8

[3] = biological target: T2, human CCR8 (C-C chemokine receptor type …); assay: cell-based or functional assay
cynomolgus monkey CCR8 [4] = biological target: T3, cynomolgus monkey CCR8 (cynomolgus monkey, UniProt G7NYJ2 1-355); assay: FACS on HEK293T-c.CCR8 cells
T3 construct: whole, on cells; also called c.CCR8; HEK293T-c.CCR8

human CCR4 [5] = biological target: T1, human CCR4; assay: FACS on HEK293T-h.CCR4 cells; remark: listed apart in the source
Procedure: The specificity of humanized monoclonal antibodies against human CCR4 was assessed using FACS. HEK293T-h.CCR4 cells were collected, washed, and resuspended in 1% BSA (in PBS). Each well of a 96-well V-bottom plate received 3×10\hat{ }5 cells, followed by the addition of the test antibodies at a final concentration of 20 μg/mL and incubation at 4° C. for one hour. After washing, 1 μL of fluorescent secondary antibody (Biolegend, Catalog No.: 410708) was added, and the mixture was incubated. The cells were washed and resuspended for detection using a flow cytometer (Beckman, Model: CytoFLEX).

[6] = biological target: T2, human CCR8 (C-C chemokine receptor type …); assay: FACS on HEK293T-h.CCR8 cells, test 1
Procedure: (§1) The affinity of humanized monoclonal antibodies against human CCR8 was assessed using FACS. The experimental procedure was as follows: HEK293T-h.CCR8 cells were digested and collected by centrifugation, followed by three washes with pre-cooled PBS. The cells were resuspended in 1% BSA (in PBS), with 3×10\hat{ }5 cells added to each well of a 96-well V-bottom plate (50 μL per well). Prepare the antibody dilution series in 1% BSA (in PBS), starting from 40 μg/mL. Perform a 3-fold serial dilution across 10 concentration points. Add 50 μL per well to the cells, so that the final antibody concentration in the wells starts from 20 μg/mL. Mix thoroughly and incubate at 4° C. for 1 hour. The cells were collected by centrifugation, washed three times with pre-cooled PBS, resuspended in 50 μL 1% BSA (in PBS), and 1 μL of fluorescent secondary antibody (Biolegend, Catalog No.: 410708) was added to each well. The mixture was incubated at 4° C. for 30 minutes, followed by three washes with pre-cooled PBS. The cells were then resuspended in 200 μL PBS for detection.

cynomolgus monkey CCR8 [7] = biological target: T3, cynomolgus monkey CCR8; assay: FACS on HEK293T-c.CCR8 cells, mouse antibody
[8] = biological target: T2, human CCR8 (C-C chemokine receptor type …); assay: FACS on HEK293T-h.CCR8 cells, test 2 (anti-human Alexa Fluor 647 secondary antibody)
Procedure: as §1

T2 sequence (P51685 whole entry): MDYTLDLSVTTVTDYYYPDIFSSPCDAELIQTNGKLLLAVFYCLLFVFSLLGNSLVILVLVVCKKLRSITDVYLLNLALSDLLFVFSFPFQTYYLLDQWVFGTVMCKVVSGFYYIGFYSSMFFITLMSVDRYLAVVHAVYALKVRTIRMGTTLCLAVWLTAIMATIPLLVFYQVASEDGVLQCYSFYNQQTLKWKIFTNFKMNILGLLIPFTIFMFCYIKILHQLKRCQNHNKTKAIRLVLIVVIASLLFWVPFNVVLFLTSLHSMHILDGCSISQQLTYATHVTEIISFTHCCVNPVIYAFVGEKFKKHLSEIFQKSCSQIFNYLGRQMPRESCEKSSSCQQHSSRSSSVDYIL
T3 sequence (G7NYJ2 entry or part of it): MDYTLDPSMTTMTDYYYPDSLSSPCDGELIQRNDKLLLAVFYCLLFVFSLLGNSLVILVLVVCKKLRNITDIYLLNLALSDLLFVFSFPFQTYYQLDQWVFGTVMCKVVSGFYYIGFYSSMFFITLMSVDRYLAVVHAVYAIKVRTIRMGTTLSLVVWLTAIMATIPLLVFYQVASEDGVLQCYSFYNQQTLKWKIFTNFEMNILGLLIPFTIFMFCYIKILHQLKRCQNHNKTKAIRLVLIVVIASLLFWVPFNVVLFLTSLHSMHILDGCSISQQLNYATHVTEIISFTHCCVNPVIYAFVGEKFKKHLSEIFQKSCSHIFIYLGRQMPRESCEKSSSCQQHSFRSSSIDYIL

binding result (human CCR4 [1]) | EC50 [2] | ADCC activity EC50 [3] | ADCP activity EC50 [3] | Inhibition rate of CCL1-mediated cell migration (%) at 50 µg/mL, BaF3-h.CCR8 cells, Transwell [3] | binding result (cynomolgus monkey CCR8 [4]) | binding result (human CCR4 [5]) | EC50 [6] | EC50 (cynomolgus monkey CCR8 [7]) | EC50 [8] | Binder
no binding (tested: 10 µg/mL) | 0.16 nM | – | – | – | – | – | – | – | – | 96F1C4 (anti-human CCR8 mouse monoclonal antibody) (antibody, V domains shown, Mouse antibody purified from hybridoma supernatant) VH: QVQLQQSGAELVRPGASVTLSCKASGYTFTDYEMHWVKQTPVHGLEWIGAFDPKTGGTAYNQKFKGKAILTADKSSSTAYMELRSLTSEDSAVYYCARRRFFDVWGAGTTVTVSS VL: DAVMTQTPLSLPVSLGDQASISCRSSQSLEHSNGNTYLHWYLQKPGQSPQLLIYRVSNRFSGVLDRFSGSGSGTDFTLKISRVEAEDLGVYFCLQVTHVPFTFGTGTKLEIK
– | – | 0.0052 mg/L | 0.107 mg/L | 60.1% | no binding | no binding (tested: 20 µg/mL) | 0.0796 mg/L | – | – | 96F1C4-hz (humanized anti-human CCR8 monoclonal antibody, human IgG1) (antibody, V domains shown, Built in the pTT5-h.IgG1 vector) VH: QVQLVESGAEVKKPGSSVKVSCKASGYTFTDYEMHWVRQAPGQGLEWMGAFDPKTGGTAYAQKFQGRVTLTADKSTSTAYMELSSLRSEDTAVYYCARRRFFDVWGQGTLVTVSS VL: DAVMTQTPLSLSVTPGQPASISCRSSQSLEHSNGNTYLHWYLQKPGQSPQLLIYRVSNRFSGVPDRFSGSGSGTDFTLKISRVEAEDVGVYYCLQVTHVPFTFGQGTKVEIKR
– | – | 0.0148 mg/L | – | – | no binding | no binding (tested: 20 µg/mL) | 0.322 mg/L | – | – | 76H1F11-hz (humanized anti-human CCR8 monoclonal antibody, human IgG1) (antibody, V domains shown) VH: QVQLVESGAEVKKPGSSVKVSCKASGYTFTDYEIHWVRQAPGQGLEWMGAIKPETGGTAYAQKFQGRVTLTSDKSTSTAYMELSSLRSEDTAVYYCTRRRYFDVWGQGTLVTVSS VL: DAVMTQTPLSLSVTPGQPASISCRSSQSLEHSDGITYLHWYLQKPGQSPQLLIYRVSNRFSGVPDRFSGSGSGTDFTLKISRVEAEDVGVYYCLQVTHVPFTFGQGTKVEIKR
no binding (tested: 10 µg/mL) | 0.37 nM | – | – | – | – | – | – | 0.288 mg/L | – | 13F3H6 (anti-human CCR8 mouse monoclonal antibody) (antibody, V domains shown, Mouse antibody purified from hybridoma supernatant) VH: EVQLVESGGGLVRPKGSLKFSCAASGFTFNAYAMNWVRQAPGKGLEWVARIRTKSNNYATYYADSVKDRFTISRDDSENMLYLQMNNLKTEDTAIYYCVRHKKVREGYAMDYWGQGTSVTVSS VL: DIVLTQSPASLVLSLGQRATISCRASKSVSTSGYTYMHWYQQKPGQPPKLLIYLASNLESGVPARFSGSGSGTDFTLNIHPVEEEDAATYYCQHSRELPFTFGSGTKLEIK
– | – | 0.00117 mg/L | 0.0647 mg/L | 73.5% | – | – | – | – | 0.0244 mg/L | 13F3H6-hz-eADCC (13F3H6-hz with ADCC-enhanced IgG1 Fc) (antibody, also called 13F3H6-eADCC) heavy: EVQLVESGGGLVQPGESLRLSCAASGFTFNAYAMNWVRQAPGQGLEWVARIRTKSNNYATYYADSVKGRFTISRDDSKNTLYLEMNSLRAEDTAVYYCVRHKKVREGYAMDYWGQGTLVTVSSASTKGPSVFPLAPSSKSTSGGTAALGCLVKDYFPEPVTVSWNSGALTSGVHTFPAVLQSSGLYSLSSVVTVPSSSLGTQTYICNVNHKPSNTKVDKKVEPKSCDKTHTCPPCPAPELVGGPSVFLLPPKPKDTLMISRTPEVTCVVVDVSHEDPEVKFNWYVDGVEVHNAKTKPPEEQYNSTLRVVSVLTVLHQDWLNGKEYKCKVSNKALPAPIEKTISKAKGQPREPQVYTLPPSREEMTKNQVSLTCLVKGFYPSDIAVEWESNGQPENNYKTTPLVLDSDGSFFLYSKLTVDKSRWQQGNVFSCSVMHEALHNHYTQKSLSLSPGK light: not shown
